The values below come from IntAct's records for PubMed 11923305.

Experiment [1] deals with src_human SRC (UniProt P12931).
Experiment [2] deals with src_chick SRC (UniProt P00523).
Experiment [3] has as its target src_human SRC (UniProt P12931). The source holds these as a separate data set.
Experiment [4] addresses src_chick SRC (UniProt P00523). This is another data set of the same source.

For “Receptor-type tyrosine-protein phosphatase alpha (Homo sapiens) (from UniProt P18433) S204A”, the “effect of a mutation on the interaction” value in the experiment with src_human SRC [1] and with src_chick SRC [2] was “disrupting interaction” each time.
As for “Receptor-type tyrosine-protein phosphatase alpha (Homo sapiens) (from UniProt P18433) S189A”, the “effect of a mutation on the interaction” value with src_human SRC [3] and with src_chick SRC [4] was “disrupting interaction” throughout.
